Data published in patent publication EP3085709A1 (Genor Biopharma Co., Ltd, dated 2016).
Residue numbers refer to the chain shown, from its start. In names and notes the source's numbering stands.

B1: recombinant human RANKL (soluble, Gly136-Asp317, N-terminal 10 His, expressed in CHO cells) (ligand)
chain: HHHHHHHHHHGSQHIRAEKAMVDGSWLDLAKRSKLEAQPFAHLTINATDIPSGSHKVSLSSWYHDRGWAKISNMTFSNGKLIVNQDGFYYLYANICFRHHETSGDLATEYLQLMVYVTKTSIKIPSSHTLMKGGSTKYWSGNSEFHFYSINVGGFFKLRSGEEISIEVSNPSLLDPDQDATYFGAFKVRDID
B2: G12 (antibody, human IgG2, kappa, V domains shown)
VH: QVQLVQSGAELKKPGASVKLSCKASGYTFTTYWLQWVRQAPGQGLEWMGAIYPGPGNTKYTQKFKDRFTITADTSKSTAYMQLNSLKSEDSAVYYCARRGSRRGIAYWGQGTLVTVSA
VL: NIVLTQSPASLSVSLGQRATISCRASESVDSYGRSFMHWYQQRPGQAPKLLIYLASNLESGVPARFSGSGSRTDFTLTISSVEAEDEATYYCQQDNEDPYTFGGGTKLEIKG
notes: 293F cells
B3: G14 (antibody, human IgG2, kappa, V domains shown)
VH: B2 VH with L11V, L20V, F68V, T74E, K76T, Q82E, N84S, K87R, S91T
VL: DIVMTQSPDSLAVSLGERATINCRASESVDSYGRSFMHWYQQKPGQAPRLLIYLASNLESGVPSRFSGSGSGTDFTLTINSLEAEDAATYYCQQDNEDPYTFGGGTKLEIKG
B4: G1 (antibody, human IgG2, kappa, V domains shown)
VH: QVQLQQSGAELASPGASVKLSCKASGYTFTTYWLQWVKQRPGQGLEWIGAIYPGPGNTKYTQKFKDKATLTADKSASTAYMQLNSLTSEDSAVYYCARRGSRRGIAYWGQGTLVTVSA
VL: B2 VL with S12A, A47P, K49T, A64V, S80D, S81P, E85D, E87A
notes: expressed in 293F cells; also called murine antibody G1; mouse antibody (G1)
B5: G8 (antibody, human IgG2, kappa, V domains shown)
VH: B2 VH with K12V, K13Q, A40T, F68V, K76T, K87R
VL: B2 VL
B6: G15 (antibody, human IgG2, kappa, V domains shown)
VH: B2 VH with L11V, L20V, F68V, T74E, K76T, Q82E, N84S, K87R, S91T
VL: B2 VL with K49R
notes: expressed in CHO-S cells for Embodiments 23-25
B7: G13 (antibody, human IgG2, kappa, V domains shown)
VH: B2 VH
VL: B2 VL with R43K, A64S, S81R, E87A
notes: 293F cells
B8: G10 (antibody, human IgG2, kappa, V domains shown)
VH: B2 VH
VL: B2 VL with K49R
notes: 293F cells
B9: G11 (antibody, human IgG2, kappa, V domains shown)
VH: B2 VH
VL: B2 VL with R43K, A64S, S81A, E87A
notes: 293F cells
B10: G4 (antibody, human IgG2, kappa, V domains shown)
VH: B2 VH with T74K
VL: B2 VL
notes: 293F cells
B11: pFL249-H16 scFv clone (scFv, not shown: small tags and cut ends)
scFv: QVQLVQSGAELKKPGASVKLSCKASGYTFTTYWLQWVRQAPGQGLEWMGAIYPGPGNTKYTQKFKDRFTITADKSKSTAYMQLNSLKSEDSAVYYCARRGSRRGIAYWGQGTLVTVSAGGGGSGGGGSGGGGSNIVLTQSPASLAVSLGQRATISCRASESVDSYGRSFMHWYQQRPGQPPTLLIYLASNLESGVPVRFSGSGSRTDFTLTIDPVEADDAATYYCQQDNEDPYTFGGGTKLEIK
B12: pFL249-H114 scFv clone (scFv, not shown: small tags and cut ends)
scFv: B11 scFv with K12V, K13Q, A40T, F68V, K74T, K76T, K87R
B13: pFL249-H16u scFv clone (scFv, not shown: small tags and cut ends)
scFv: B11 scFv with K74T

Columns and labels:
[1] = molecular target: commercial hRANKL standard (R & D Systems) (human) (UniProt O14788); assay: ELISA, commercial hRANKL standard coated 1 µg/ml, RANK-Fc titrated
[2] = molecular target: T1, recombinant human RANKL (soluble, Gly136-Asp317, N-terminal 10 His, expressed in CHO cells) (human) (UniProt O14788); assay: ELISA, recombinant human RANKL coated 1 µg/ml, RANK-Fc titrated
T1 sequence: B1 chain

[3] = molecular target: RANK receptor on RAW264.7 cells (mouse (RAW264.7 cells)) (UniProt O35305); assay: cell-based or functional assay
[4] = molecular target: T2, RANK receptor on RAW264.7 cells (mouse (RAW264.7 cells), UniProt O35305 31-625); assay: cell-based or functional assay
T2 sequence (looked up): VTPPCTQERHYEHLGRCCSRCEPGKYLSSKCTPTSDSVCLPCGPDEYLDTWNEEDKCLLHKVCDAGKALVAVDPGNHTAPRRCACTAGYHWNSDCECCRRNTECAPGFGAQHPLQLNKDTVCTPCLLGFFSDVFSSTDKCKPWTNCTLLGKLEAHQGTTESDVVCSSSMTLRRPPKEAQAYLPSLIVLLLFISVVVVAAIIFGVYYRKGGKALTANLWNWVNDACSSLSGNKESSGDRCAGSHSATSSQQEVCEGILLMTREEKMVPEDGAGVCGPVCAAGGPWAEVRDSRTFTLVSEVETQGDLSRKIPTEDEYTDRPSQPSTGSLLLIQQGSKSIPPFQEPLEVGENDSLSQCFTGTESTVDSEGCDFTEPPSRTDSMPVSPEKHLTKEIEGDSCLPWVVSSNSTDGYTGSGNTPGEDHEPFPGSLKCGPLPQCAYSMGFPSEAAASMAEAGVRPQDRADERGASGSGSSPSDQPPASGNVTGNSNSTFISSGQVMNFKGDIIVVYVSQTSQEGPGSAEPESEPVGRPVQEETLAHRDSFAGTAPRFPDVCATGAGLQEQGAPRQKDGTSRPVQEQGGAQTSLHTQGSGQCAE

[5] = molecular target: B1; assay: cell-based or functional assay
[6] = molecular target: B1; assay: ELISA, hRANKL coated 1 µg/ml; concentration at 50% Bmax; Plate#02
[7] = molecular target: B1; assay: competitive ELISA, RANK-Fc coated, antibody pre-incubated with 0.25 µg/ml hRANKL; Plate#02
[8] = molecular target: B1; assay: competitive ELISA, RANK-Fc coated, antibody pre-incubated with 0.25 µg/ml hRANKL; third plate (printed Plate#02)
[9] = molecular target: B1; assay: ELISA, hRANKL coated, method of Example 17; antibody from CHO-S cells
[10] = molecular target: B1; assay: competitive ELISA, RANK-Fc coated, method of Example 18; antibody from CHO-S cells
[11] = molecular target: B1; assay: cell-based or functional assay; remark: listed apart in the source
[12] = molecular target: B1; assay: ELISA, hRANKL coated 1 µg/ml; concentration at 50% Bmax; Plate#03
[13] = molecular target: B1; assay: competitive ELISA, RANK-Fc coated, antibody pre-incubated with 0.25 µg/ml hRANKL; Plate#01
[14] = molecular target: B1; assay: ELISA, hRANKL coated 1 µg/ml; concentration at 50% Bmax; Plate#01
[15] = molecular target: T1, recombinant human RANKL (soluble, Gly136-Asp317, N-terminal 10 His, expressed in CHO cells) (human); assay: ELISA, hRANKL coated 1 µg/ml, scFv supernatant, anti-c-myc detection

RANK-Fc (R & D Systems) (Fc fusion)
EC50 [1]: 0.0056 µg/mL | EC50 [2]: 0.0109 µg/mL

commercial hRANKL standard (R & D Systems) (from UniProt O14788 140-317) (ligand)
EC50 of inducing RAW264.7 cells to differentiate into osteoclasts (TRAP activity, pNPP) [3]: 35.7 ng/ml

B1
EC50 of inducing RAW264.7 cells to differentiate into osteoclasts (TRAP activity, pNPP) [4]: 113 ng/ml

B2
IC50 (ng/ml) in RAW264.7 cells [5]: ~1060 ng/mL | EC50 [6]: 0.00175 µg/mL | IC50 [7]: 0.36 µg/mL

B3
IC50 (ng/ml) in RAW264.7 cells [5]: ~517 ng/mL | IC50 [8]: 0.12 µg/mL | EC50 [9]: 0.00209 µg/mL | IC50 [10]: 0.16 µg/mL | IC50 for inhibiting cell differentiation of RAW264.7 [11]: 0.247 µg/mL | EC50 [12]: 0.004 µg/mL

B4
IC50 [13]: 0.18 µg/mL | EC50 [6]: 0.00188 µg/mL | EC50 [14]: 0.00147 µg/mL | IC50 [7]: ~0.35 µg/mL

B5
IC50 (ng/ml) in RAW264.7 cells [5]: ~573 ng/mL | EC50 [9]: 0.00405 µg/mL | IC50 [10]: 0.37 µg/mL | EC50 [6]: 0.00276 µg/mL | IC50 for inhibiting cell differentiation of RAW264.7 [11]: 0.329 µg/mL | IC50 [7]: 0.38 µg/mL

B6
EC50 [9]: 0.00356 µg/mL | IC50 [10]: 0.25 µg/mL | IC50 for inhibiting cell differentiation of RAW264.7 [11]: 0.257 µg/mL

B7
EC50 [6]: 0.00234 µg/mL | IC50 [7]: 0.31 µg/mL

B8
IC50 (ng/ml) in RAW264.7 cells [5]: 695 ng/mL | EC50 [6]: 0.00285 µg/mL | IC50 [7]: 0.4 µg/mL

B9
EC50 [6]: 0.0019 µg/mL | IC50 [7]: 0.19 µg/mL

B10
IC50 (ng/ml) in RAW264.7 cells [5]: ~1080 ng/mL | IC50 [13]: ~0.36 µg/mL | EC50 [14]: 0.00195 µg/mL

B11
OD450 [15]: 1.2 OD450

B12
OD450 [15]: 1.2 OD450

B13
OD450 [15]: 1.2 OD450
